# From US20060057632A1 (KEIO UNIVERSITY, published 2006)
# T1: peptide TM1 (N'-TRVTSFLDWIHEQMERDLKT-C')
# T1 construct: Peptide antigen coated on the plate
# T1 peptide: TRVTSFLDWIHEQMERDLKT
# B1: TM1 scFV (scFv)
# scFv: ETTLTQSPSSLSASVGDRVTITCRTSQTINNYLNWYQQKPGKAPKVLIFGASRLQSGVPSRFSGSGSGTHFTLTITSLQPEDVATYYCQQSYGTPYTFGQGTKVEIKVDITSYNVYYTKLSLEQVQLQQWGAGLLKPSETLSLTCAIYNGSFGGYYWNWIRQPPGKGLEWIGEINQRESTNFNPSFKSRVTMSVDTSNNQFSLRLSSLTAADTAVYFCARGLYYDTTGFFDAFAVWGQGTTVTVSHLGLMGHHHHHH
# Molecular target: T1, peptide TM1 (N'-TRVTSFLDWIHEQMERDLKT-C')
# Assay: binding implied by the name and by sequencing of ELISA positive clones (phage ELISA on coated TM1); not said in so many words
binder,measurement,value
B1,binding result,binds
